Data on 73 sequences can be found in the supplement of paper PMC10567573.

± gives the standard deviation.

This data set in a line: protein stability index of a GFP-peptide fusion (GPS, HEK-293T) (PSI 1-6); higher = more stable. As to conditions: c terminus: a fixed tail appended.
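Note: 24-mer peptide tiles fused after GFP, lentivirally expressed, FACS-sorted into six equal bins by GFP/DsRed ratio, decoded by Illumina sequencing, PSI is the read-weighted mean bin number.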

Consider LDLFAMKPPETSVPVVTPTASTAP [SNAP91], for which the protein stability index runs as follows: (treatment: DMSO) 4.25 ± 0.28; (treatment: MLN4924 1 uM, 8 h) 4.48 ± 0.22. On the same counts, the results for LDVFGRGDNISDVSKFLEDDKWME [LUC7L3] are 4.72 ± 0.27 and 4.37 ± 0.14.

The sequence LDVIERDLHRQFPFHEMFVSRGGH [TBC1D10A] registered a protein stability index (treatment: DMSO) of 2.98 ± 0.3 and a protein stability index (treatment: MLN4924 1 uM, 8 h) of 2.86 ± 0.21. On the same counts, the results for LEASNYQMMPYMQPVMQSDRTAIR [KLHL13] are 3.9 ± 0.38 and 4.17 ± 0.25. LEEMILPLMVASAQSGERECHIVV [BTBD10]: the protein stability index (treatment: DMSO) was 2.35 ± 0.79 and the protein stability index (treatment: MLN4924 1 uM, 8 h) was determined as 2.48 ± 0.48.

Regarding LEGSHDTANCEACTLGICGQGLKS [RTP4], the protein stability index is, setting by setting: (treatment: DMSO) 5.13 ± 0.25; (treatment: MLN4924 1 uM, 8 h) 5.11 ± 0.12. For LEKEREKEISDDEAEEEKGEKEEE [HSP90AB1], the protein stability index is, setting by setting: (treatment: DMSO) 5.66 ± 0.34; (treatment: MLN4924 1 uM, 8 h) 5.74 ± 0.21. Take LERKCEKRSVYIDARDEELEKDTM [ZC3H15]: the protein stability index is 4.93 ± 0.49 (treatment: DMSO) and 4.9 ± 0.075 (treatment: MLN4924 1 uM, 8 h). The matching figures for LGALKPLPACEFEMGGSEGIVESI [NETO1]: 4.28 ± 0.2 and 4.31 ± 0.25. The matching figures for LGFGSAKEAVTGSRLGQGIGPIHL [LOXL2]: 2.7 ± 0.26 and 2.64 ± 0.073. On the same counts, the results for LGSIFQQLAHMVKEQEETIQRIDE [STX5] are 4.48 ± 0.2 and 4.26 ± 0.098. As to LGSPQHSPSTRGSPNRSLPSPGVL [ATF4], the protein stability index was found to be 4.45 ± 0.23 (treatment: DMSO) and 4.45 ± 0.22 (treatment: MLN4924 1 uM, 8 h). On the same counts, the results for LGVAVAVLGGFLYAVGGSDGTSPL [KLHL20] are 2.86 ± 0.64 and 2.85 ± 0.51. On the same counts, the results for LGWGPTALRDVPFSALYWFNYELV [SLC25A39] are 2.9 ± 0.54 and 2.61 ± 0.41.

Take LHTDVGSVRMRRAEKSVAPSNTGS [NEK8]: the protein stability index reads like this: (treatment: DMSO) 4.58 ± 0.22; (treatment: MLN4924 1 uM, 8 h) 4.73 ± 0.14. On the same counts, the results for LIDHLALRARNYEYLIRLFQEWEA [TCF25] are 2.1 ± 0.27 and 2.43 ± 0.36. The matching figures for LIKFQVGLKKLNLHEEEHVLLMAI [VDR]: 2.8 ± 0.62 and 2.73 ± 0.78. On the same counts, the results for LIKNNSLPRKRQSLRSSSSKLAQL [INTS3] are 2.99 ± 0.27 and 3.31 ± 0.17. Consider LIYMVTIMGNLLIIVTIMASQSLG [OR4A15], for which the protein stability index by setting is: (treatment: DMSO) 3.18 ± 0.43; (treatment: MLN4924 1 uM, 8 h) 3.1 ± 0.29.

As to LKAHAEEKPPSGTKEKKHQCDHCE [PLAGL1], the protein stability index runs as follows: (treatment: DMSO) 5.38 ± 0.22; (treatment: MLN4924 1 uM, 8 h) 5.46 ± 0.098. On the same counts, the results for LKELQAIAERLGCTLPQLAIAWCL [KCNAB2] are 2.29 ± 0.74 and 2.27 ± 0.25. On the same counts, the results for LLDFMCRIIPNFYPPLEGHVRQGV [INTS3] are 3.31 ± 0.42 and 2.84 ± 0.41. The matching figures for LLDKTCDQVMEFSWSALWNITDET [ZER1]: 2.37 ± 0.28 and 2.35 ± 0.34.

LLFKLVAPVTFRHHRYDDLVRTLY [CPN1]: the protein stability index came out at 2.65 ± 0.63 (treatment: DMSO) and 2.83 ± 0.56 (treatment: MLN4924 1 uM, 8 h). As to LLKTPWRAASAMQFFTKGYQETIS [GCH1], the protein stability index (treatment: DMSO) amounted to 2.19 ± 0.28 and the protein stability index (treatment: MLN4924 1 uM, 8 h) was determined as 2.44 ± 0.18. The matching figures for LLLVAKMSVGHLRLLSHDQVAMPY [JAGN1]: 3.06 ± 0.46 and 2.81 ± 0.21. LLNQQSLKRSANQMGVSAKRRPKA [MED27]: the protein stability index runs as follows: (treatment: DMSO) 3.47 ± 0.3; (treatment: MLN4924 1 uM, 8 h) 3.82 ± 0.24. The matching figures for LLPDQARGEVPWSPELGRPHDRSQ [ZNF263]: 4.58 ± 0.17 and 4.86 ± 0.091. On the same counts, the results for LLRPPVAAFVRAQADLLAHLVPEP [DNAAF3] are 2.23 ± 0.31 and 2.33 ± 0.31.

In the case of LMDYIGINLATMNSCINPIALYFV [EDNRA], under “treatment: MLN4924 1 uM, 8 h”, the protein stability index came out at 3.08 ± 0.24. As to LMIIVCIDQWKNKIWPEIKVPRPD [RETREG3], the protein stability index turned out to be 2.81 ± 0.43 (treatment: DMSO) and 2.82 ± 0.45 (treatment: MLN4924 1 uM, 8 h). In the case of LMVHGNERFIQYLASRNTLFNLSN [SNAP91], the protein stability index was determined as 2.67 ± 0.54 (treatment: DMSO) and 2.3 ± 0.7 (treatment: MLN4924 1 uM, 8 h). On the same counts, the results for LNWKMTLCLLVAWSIVGMAVVKGI [SLC6A17] are 2.61 ± 0.67 and 2.45 ± 0.48. On the same counts, the results for LPDLCLCRVFWWLGDRDRSRAALV [FBXO39] are 2.5 ± 0.51 and 2.76 ± 0.7. The matching figures for LPETLNSPLLETFSDLQVYSYRRL [SLC22A15]: 2.4 ± 0.1 and 2.81 ± 0.27. On to LPHGVNFQDAIFPDTQENRRMFSS [CCDC3], for which the protein stability index was 3.91 ± 0.18 (treatment: DMSO) and 3.92 ± 0.097 (treatment: MLN4924 1 uM, 8 h). As to LPLALVTWVPMFLSTLLAPYQALR [SOAT2], the protein stability index stood at 2.93 ± 0.6 (treatment: DMSO) and 2.95 ± 0.35 (treatment: MLN4924 1 uM, 8 h).

Sequence LPPKVGSFQLFVEGYKDADYWLRR [PI4K2A] gave a protein stability index (treatment: DMSO) of 2.41 ± 0.34 and a protein stability index (treatment: MLN4924 1 uM, 8 h) of 2.46 ± 0.17.

In the case of LPSNLLKKFRSSTSSSLGDKSEYL [KCNA4], the protein stability index by setting is: (treatment: DMSO) 3.11 ± 0.084; (treatment: MLN4924 1 uM, 8 h) 3.23 ± 0.37. The matching figures for LPSVPVSVPASDPRSCSSGPAGPY [PLEKHN1]: 4.35 ± 0.21 and 4.39 ± 0.17. On the same counts, the results for LPTDAVDCMSRELVSLTSRNPDQR [FBXO34] are 4.85 ± 0.25 and 4.9 ± 0.17. On the same counts, the results for LQCRSPPRLHGAKAILDAEPGPRP [TBC1D10A] are 4.46 ± 0.12 and 4.48 ± 0.12. Consider LQDLALQGAKERAHQQKKHSGFED [CHGA], for which the protein stability index was determined as 4.92 ± 0.29 (treatment: DMSO) and 5.06 ± 0.22 (treatment: MLN4924 1 uM, 8 h).

Turning to LQGLIPGARYEVTVVSVRGFEESE [TNXB], the protein stability index is, setting by setting: (treatment: DMSO) 2.19 ± 0.34; (treatment: MLN4924 1 uM, 8 h) 2.44 ± 0.78. On the same counts, the results for LQHVSEPQAHQESTRGAARPAQAI [SPACA9] are 4.96 ± 0.19 and 5.04 ± 0.098.

Regarding LQILAYGNQESKLIILASGGPQAL [CTNNB1], the protein stability index by setting is: (treatment: DMSO) 2.89 ± 1.4; (treatment: MLN4924 1 uM, 8 h) 2.22 ± 1.1. The matching figures for LQRQAEQNPTASYYNVVLLRYQFS [FCHO1]: 2.23 ± 0.4 and 2.28 ± 0.34. For LRDDVLCARMLYNYGADTNTRNYE [ASB7], the protein stability index is 3.1 ± 0.21 (treatment: DMSO) and 2.86 ± 0.14 (treatment: MLN4924 1 uM, 8 h).

Take LREIPETTPIEEVKGLFKSENCPK [LARP4]: the protein stability index was 5.06 ± 0.19 (treatment: DMSO) and 5.1 ± 0.33 (treatment: MLN4924 1 uM, 8 h).

For LRELCRLWLRPETHTKEQILELVV [ZNF24], the protein stability index is, setting by setting: (treatment: DMSO) 2.44 ± 0.21; (treatment: MLN4924 1 uM, 8 h) 2.11 ± 0.34. On the same counts, the results for LRLLQHTPSARRNYRIAGARLMRS [C6orf223] are 2.99 ± 0.22 and 3.08 ± 0.32. On the same counts, the results for LRRESTSQKEMDKAETKTKKAAES [FCHO1] are 5.45 ± 0.28 and 5.46 ± 0.13.

Take LRRKTPRHKQPTLLMVRASRRSGK [C6orf223]: the protein stability index was determined as 3.61 ± 0.13 (treatment: DMSO) and 4.04 ± 0.22 (treatment: MLN4924 1 uM, 8 h). As to LSGVEEELQRTKQEVLSLRRENST [SASS6], the protein stability index by setting is: (treatment: DMSO) 5.07 ± 0.22; (treatment: MLN4924 1 uM, 8 h) 5 ± 0.21. The matching figures for LSLPARNQAGYFMLPTVITDIKDE [ALDH8A1]: 3.81 ± 0.39 and 3.88 ± 0.27. The matching figures for LSNLVQHILKKYYGNGMRKSPEMP [RTP4]: 2.43 ± 0.35 and 2.28 ± 0.11.

Regarding LSQPQQGEAMLANFKPRGYSECIV [GAN], the protein stability index was 3.13 ± 0.21 (treatment: DMSO) and 3.02 ± 0.37 (treatment: MLN4924 1 uM, 8 h). The matching figures for LSSDRVANSSSEAPFPNVSTSLLT [ADAMTSL2]: 4.17 ± 0.21 and 4.14 ± 0.29. On the same counts, the results for LSSNREAHQHRDKMQQSKNQVVSS [CSNK1G3] are 4.72 ± 0.21 and 4.81 ± 0.37. On the same counts, the results for LTELVQRRITYLQNPKDCSKAKKL [FUT8] are 3.99 ± 0.35 and 4.08 ± 0.24.

Regarding LTLQVLVAGNPQDTRLRYSFFVPR [ADAMTS4], the protein stability index (treatment: DMSO) amounted to 3.13 ± 0.4 and the protein stability index (treatment: MLN4924 1 uM, 8 h) stood at 3.19 ± 0.44.

With LVAKELGQTGTRLTPADKAEHMKR [AUP1], the protein stability index by setting is: (treatment: DMSO) 4.41 ± 0.4; (treatment: MLN4924 1 uM, 8 h) 4.29 ± 0.21. Turning to LVVDYIDEGRLVLEFSLLSYAFGK [SOAT1], the protein stability index is, setting by setting: (treatment: DMSO) 3.29 ± 0.8; (treatment: MLN4924 1 uM, 8 h) 3.17 ± 0.48. The matching figures for LWKRMDKLEAEKRILQEKLDQPVS [CCDC6]: 3.81 ± 0.2 and 3.94 ± 0.35. The matching figures for LYPAVSAVWGQCQVRIRYLGERRA [SPSB2]: 2.56 ± 0.19 and 2.62 ± 0.38.

On to LYQKQPKIGYHLLYYLRASKAAAG [INTS3], for which the protein stability index reads like this: (treatment: DMSO) 2.55 ± 0.31; (treatment: MLN4924 1 uM, 8 h) 2.25 ± 0.33. On the same counts, the results for MAAESGELIGACEFMKDRLYFATL [CDC14A] are 2.53 ± 1.1 and 1.82 ± 0.46.

Take MAAPEERDLTQEQTEKLLQFQDLT [FAF2]: the protein stability index amounted to 5.13 ± 0.29 (treatment: DMSO) and 5.16 ± 0.2 (treatment: MLN4924 1 uM, 8 h). The matching figures for MADGNEDLRADDLPGPAFESYESM [KLHDC2]: 5.41 ± 0.23 and 5.26 ± 0.26. With MAGGPPNTKAEMEMSLAEELNHGR [FATE1], the protein stability index reads like this: (treatment: DMSO) 5.17 ± 0.14; (treatment: MLN4924 1 uM, 8 h) 5.22 ± 0.27. For the sequence MEALAAETNLLLAQKQRLERALDA [TEKT4], the protein stability index came to 4.13 ± 0.4 (treatment: DMSO) and 4.13 ± 0.38 (treatment: MLN4924 1 uM, 8 h). On the same counts, the results for MEDKEMTGPQLPESLEDVAMYISQ [ZNF263] are 4.73 ± 0.23 and 4.78 ± 0.2. On the same counts, the results for MEHLIYGEPRKLLTQDWVQENYLE [MAGEA10] are 3.41 ± 0.35 and 3.47 ± 0.3.
